Reference: US20230348616A1 (MIE UNIVERSITY, published 2023)
Where two headings read alike, the source gives them in different places.

Assays:
[1] = target: T1, HLA-A2 / homologous peptide P2RY8 complex on T2 cells (human); experiment: flow cytometry, peptide-pulsed T2 cells
T1 construct: whole, on cells; also called T2 cells supplemented with homologous peptide P2RY8

[2] = target: T2, HLA-A2 / homologous peptide DOLPP1 complex on T2 cells (human); experiment: flow cytometry, peptide-pulsed T2 cells
T2 construct: whole, on cells; also called T2 cells supplemented with homologous peptide DOLPP1

[3] = target: T3, HLA-A2 / homologous peptide CD163 complex on T2 cells (human); experiment: flow cytometry, peptide-pulsed T2 cells
T3 construct: whole, on cells; also called T2 cells supplemented with homologous peptide CD163

[4] = target: T4, HLA-A2 / homologous peptide IL20RB complex on T2 cells (human); experiment: flow cytometry, peptide-pulsed T2 cells
T4 construct: whole, on cells; also called T2 cells supplemented with homologous peptide IL20RB

[5] = target: T5, HLA-A2 / homologous peptide PRKD2 complex on T2 cells (human); experiment: flow cytometry, peptide-pulsed T2 cells
T5 construct: whole, on cells; also called T2 cells supplemented with homologous peptide PRKD2

[6] = target: T6, HLA-A2/NY-ESO peptide complex presented on cells (human); experiment: flow cytometry on peptide-pulsed T2 cells, scFv 100 nM
T6 construct: whole, on cells; also called HLA/NY-ESO; T2 cells supplemented with the NY-ESO peptide

gp100 [7] = target: T7, gp100 (human); experiment: as above
T7 construct: cell surface;cell surface complex; also called HLA-A2 / gp100 peptide complex on T2 cells

[8] = target: T1, HLA-A2 / homologous peptide P2RY8 …; experiment: as above
Procedure: (§1) The cells were washed 2 times in PBS containing 5% FBS, immobilized with Mildform 10 N (FUJIFILM Wako Pure Chemical Corporation) overnight, and resuspended in PBS containing 5% FBS. The cell suspensions were subjected to detection using a flow cytometer (CantoII, Becton Dickinson). […] The standardized gMFI indicating the binding affinity of each scFv standardized with the amount of the HLA/peptide complex on the T2 cells was determined in accordance with the following equation.
(§2) The 9-mer peptide shown in FIG. 2A was selected as a homologous peptide for evaluation of binding specificity of anti-HLA/NY-ESO scFv. […] The standardized gMFI indicating the binding affinity of each scFv standardized with the amount of the HLA/peptide complex on the T2 cells was determined in accordance with the following equation.

[9] = target: T2, HLA-A2 / homologous peptide DOLPP1 …; experiment: as above
Procedure: as §1, §2

[10] = target: T3, HLA-A2 / homologous peptide CD163 …; experiment: as above
Procedure: as §1, §2

[11] = target: T6, HLA-A2/NY-ESO peptide complex presented …; experiment: as above; remark: listed apart in the source
Procedure: as §1, §2

[12] = target: T4, HLA-A2 / homologous peptide IL20RB …; experiment: as above
Procedure: as §1, §2

[13] = target: T5, HLA-A2 / homologous peptide PRKD2 …; experiment: as above
Procedure: as §1, §2

gp100 [14] = target: T7, gp100; experiment: as above; remark: listed apart in the source
Procedure: as §1, §2

[15] = target: T8, HLA-A*0201/β2-microglobulin/NY-ESO peptide complex (human, biotinylated with E. coli biotin ligase at the added recognition sequence (biotinylated form used in the ELISA)); experiment: SPR (Biacore T200), scFv captured by anti-His antibody, HLA/NY-ESO as analyte, single cycle kinetics
T8 construct: also called HLA/NY-ESO; HLA-A2/NY-ESO
Procedure: With the use of Biacore T200, anti-HLA/NY-ESO scFv was captured as a ligand by the immobilized anti-His antibody, and the antigen was assayed as an analyte. As the antigen, HLA/NY-ESO prepared in 1)-1 was used. The anti-His antibody (His Capture kit, GE Healthcare) was immobilized on Sensor Chip CM5 (GE Healthcare) in accordance with the instructions of the kit. The anti-HLA/NY-ESO scFv constructs diluted to 0.5 μg/ml in HBS-EP+ (GE Healthcare) to be evaluated were brought into contact therewith at 10 μl/min for 60 seconds for immobilization. Thereafter, the samples were added to the HLA/NY-ESO analytes diluted to various levels with HBS-EP+ at a flow rate of 30 μl/min for 120 seconds and dissociation was assayed for 600 seconds.

Binder	binding result [1]	binding result [2]	binding result [3]	binding result [4]	binding result [5]	standardized gMFI [6]	standardized gMFI (gp100 [7])	standardized gMFI [8]	standardized gMFI [9]	standardized gMFI [10]	standardized gMFI [11]	standardized gMFI [12]	standardized gMFI [13]	standardized gMFI (gp100 [14])	Kd [15]
NYA-2035 (scFv) scFv: GEVQLVESGGGVVQPGRSLTPSCSASGFSIRSYDIHWVRLAPGKGLEWVATISYDGSQKYFADSVKGRFTIFRDESENMVYLQMSGLRVEDTAVYHCARGSSGHYEAFDIWGQGTMVTVSSGGGGSGGGGSGGGGSQSVLTQPPSVSAAPGQKVTISCSGSSSNIGNWKVSWYQQLPGTAPKLLIYDNNKRPSGIPDRFSGSKSGTSATLGITGLQTGDEADYYCGTWDSSLSAPWVFGGGTKVTVLGAAAGAGGDYKDDDDKGAAAHHHHHH	no binding (tested: 100 nM)	no binding (tested: 100 nM)	no binding (tested: 100 nM)	no binding (tested: 100 nM)	no binding (tested: 100 nM)	9.94	0.38	0.69	0.38	0.48	11.1	0.41	0.33	0.29	3.2 nM
NYA-2143 (scFv) scFv: GEVQLVESGGGVVQPGRSLTPSCSASGFSIRSYDIHWVRLAPGKGLEWVATISYDGSQKYFADSVKGRFTIFRDESENMVYLQMSGLRVEDTAVYHCARGSSGHYEAFDIWGQGTMVTVSSGGGGSGGGGSGGGGSQSVLTQPPSVSAAPGQKVTISCSGSSSNIGNWYVSWYQRLPGTAPKLLIYDNNKRPSGIPDRFSGSKSGTSATLGITGLQTGDEADYYCGTWDSSLSAPWVFGGGTKVTVLGAAAGAGGDYKDDDDKGAAAHHHHHH	no binding (tested: 100 nM)	no binding (tested: 100 nM)	no binding (tested: 100 nM)	no binding (tested: 100 nM)	no binding (tested: 100 nM)	13.1	0.38	0.69	0.38	0.46	13.5	0.42	0.32	0.31	0.9 nM
NYA-2060 (scFv, also called NYA-2060 tag adduct) scFv: GEVQLVESGGGLVQPGGSLRLSCAASGFSIRSYDIHWVRQAPGKGLEWVATISYDGSQKYYADSVKGRFTISRDESKNTLYLQMNSLRAEDTAVYHCARGSSGHYEAFDIWGQGTLVTVSSGGGGSGGGGSGGGGSQSVLTQPPSVSAAPGQKVTISCSGSSSNIGNWYVSWYQQLPGTAPKLLIYDNNKRPSGIPDRFSGSKSGTSATLGITGLQTGDEADYYCGTWDSSLSAPWVFGGGTKVTVLGAAAGAGGDYKDDDDKGAAAHHHHHH	no binding (tested: 100 nM)	no binding (tested: 100 nM)	no binding (tested: 100 nM)	no binding (tested: 100 nM)	no binding (tested: 100 nM)	8.78	0.41	0.62	0.42	0.47	11.2	0.45	0.33	0.32	1.1 nM
NYA-2047 (scFv) scFv: GQVQLVESGGGVVQPGRSLRLSCAASGFSIRSYDMHWVRQAPGKGLEWVATISYDGSQKYYADSVKGRFTISRDNSKNTLYLQMSSLRAEDTAVYHCARGSSGHYEAFDIWGQGTLVTVSSGGGGSGGGGSGGGGSQSVLTQPPSVSAAPGQKVTISCSGSSSNIGNWYVSWYQQLPGTAPKLLIYDNNKRPSGIPDRFSGSKSGTSATLGITGLQTGDEADYYCGTWDSSLSAPWVFGGGTKVTVLGAAAGAGGDYKDDDDKGAAAHHHHHH	no binding (tested: 100 nM)	no binding (tested: 100 nM)	no binding (tested: 100 nM)	no binding (tested: 100 nM)	no binding (tested: 100 nM)	7.99	0.39	0.72	0.4	0.47	10.2	0.43	0.35	0.3	5.3 nM
NYA-2045 (scFv, also called NYA-2045 tag adduct) scFv: GEVQLVESGGGLVQPGGSLRLSCAASGFSIRSYDIHWVRLAPGKGLEWVATISYDGSQKYYADSVKGRFTISRDESKNTLYLQMNSLRAEDTAVYHCARGSSGHYEAFDIWGQGTLVTVSSGGGGSGGGGSGGGGSQSVLTQPPSASGTPGQRVTISCSGSSSNIGNWYVSWYQQLPGTAPKLLIYDNNKRPSGVPDRFSGSKSGTSASLAISGLQSEDEADYYCGTWDSSLSAPWVFGGGTKLTVLGAAAGAGGDYKDDDDKGAAAHHHHHH	no binding (tested: 100 nM)	no binding (tested: 100 nM)	no binding (tested: 100 nM)	no binding (tested: 100 nM)	no binding (tested: 100 nM)	9.03	0.39	0.58	0.43	0.48	13.8	0.47	0.34	0.3	0.8 nM
NYA-2044 (scFv, also called NYA-2044 tag adduct) scFv: GEVQLVESGGGLVQPGGSLRLSCAASGFSIRSYDIHWVRLAPGKGLEWVATISYDGSQKYYADSVKGRFTISRDESKNTLYLQMNSLRAEDTAVYHCARGSSGHYEAFDIWGQGTLVTVSSGGGGSGGGGSGGGGSQSVLTQPPSVSAAPGQKVTISCSGSSSNIGNWYVSWYQQLPGTAPKLLIYDNNKRPSGIPDRFSGSKSGTSATLGITGLQTGDEADYYCGTWDSSLSAPWVFGGGTKVTVLGAAAGAGGDYKDDDDKGAAAHHHHHH	no binding (tested: 100 nM)	no binding (tested: 100 nM)	no binding (tested: 100 nM)	no binding (tested: 100 nM)	no binding (tested: 100 nM)	12.9	0.39	0.72	0.38	0.47	14.3	0.43	0.33	0.32	0.8 nM
NYA-2061 (scFv, also called NYA-2061 tag adduct) scFv: GEVQLVESGGGLVQPGGSLRLSCAASGFSIRSYDIHWVRQAPGKGLEWVATISYDGSQKYYADSVKGRFTISRDESKNTLYLQMNSLRAEDTAVYHCARGSSGHYEAFDIWGQGTLVTVSSGGGGSGGGGSGGGGSQSVLTQPPSASGTPGQRVTISCSGSSSNIGNWYVSWYQQLPGTAPKLLIYDNNKRPSGVPDRFSGSKSGTSASLAISGLQSEDEADYYCGTWDSSLSAPWVFGGGTKLTVLGAAAGAGGDYKDDDDKGAAAHHHHHH	no binding (tested: 100 nM)	no binding (tested: 100 nM)	no binding (tested: 100 nM)	no binding (tested: 100 nM)	no binding (tested: 100 nM)	8.62	0.4	0.57	0.4	0.48	10.4	0.46	0.33	0.32	1.5 nM
